Assay results from PMC3034952 (Enzyme Research, 2011).

B1: AtPDC E1α, wild type, bacterial two-hybrid fusion in pTRG (enzyme, Arabidopsis thaliana, UniProt P52901 1-389, looked up)
chain: MALSRLSSRSNIITRPFSAAFSRLISTDTTPITIETSLPFTAHLCDPPSRSVESSSQELLDFFRTMALMRRMEIAADSLYKAKLIRGFCHLYDGQEAVAIGMEAAITKKDAIITAYRDHCIFLGRGGSLHEVFSELMGRQAGCSKGKGGSMHFYKKESSFYGGHGIVGAQVPLGCGIAFAQKYNKEEAVTFALYGDGAANQGQLFEALNISALWDLPAILVCENNHYGMGTAEWRAAKSPSYYKRGDYVPGLKVDGMDAFAVKQACKFAKQHALEKGPIILEMDTYRYHGHSMSDPGSTYRTRDEISGVRQERDPIERIKKLVLSHDLATEKELKDMEKEIRKEVDDAIAKAKDCPMPEPSELFTNVYVKGFGTESFGPDRKEVKASLP
B2: AtPDC E1 (AtE1; recombinant alpha2beta2 pyruvate dehydrogenase) (Arabidopsis thaliana) (protein)
chain 1: SAAFSRLISTDTTPITIETSLPFTAHLCDPPSRSVESSSQELLDFFRTMALMRRMEIAADSLYKAKLIRGFCHLYDGQEAVAIGMEAAITKKDAIITAYRDHCIFLGRGGSLHEVFSELMGRQAGCSKGKGGSMHFYKKESSFYGGHGIVGAQVPLGCGIAFAQKYNKEEAVTFALYGDGAANQGQLFEALNISALWDLPAILVCENNHYGMGTAEWRAAKSPSYYKRGDYVPGLKVDGMDAFAVKQACKFAKQHALEKGPIILEMDTYRYHGHSMSDPGSTYRTRDEISGVRQERDPIERIKKLVLSHDLATEKELKDMEKEIRKEVDDAIAKAKDCPMPEPSELFTNVYVKGFGTESFGPDRKEVKASLP
chain 2: AAGAKEMTVRDALNSAIDEEMSADPKVFVMGEEVGQYQGAYKITKGLLEKYGPERVYDTPITEAGFTGIGVGAAYAGLKPVVEFMTFNFSMQAIDHIINSAAKSNYMSAGQINVPIVFRGPNGAAAGVGAQHSQCYAAWYASVPGLKVLAPYSAEDARGLLKAAIRDPDPVVFLENELLYGESFPISEEALDSSFCLPIGKAKIEREGKDVTIVTFSKMVGFALKAAEKLAEEGISAEVINLRSIRPLDRATINASVRKTSRLVTVEEGFPQHGVCAEICASVVEESFSYLDAPVERIAGADVPMPYAANLERLALPQIEDIVRASKRACYRSK
notes: co-expressed in E. coli with GroE; alpha2beta2 heterotetramer, Mr 160,000
B3: AtPDC E1 (AtE1; recombinant alpha2beta2 pyruvate dehydrogenase) (Arabidopsis thaliana; P52901:G297D) (protein)
chain 1: SAAFSRLISTDTTPITIETSLPFTAHLCDPPSRSVESSSQELLDFFRTMALMRRMEIAADSLYKAKLIRGFCHLYDGQEAVAIGMEAAITKKDAIITAYRDHCIFLGRGGSLHEVFSELMGRQAGCSKGKGGSMHFYKKESSFYGGHGIVGAQVPLGCGIAFAQKYNKEEAVTFALYGDGAANQGQLFEALNISALWDLPAILVCENNHYGMGTAEWRAAKSPSYYKRGDYVPGLKVDGMDAFAVKQACKFAKQHALEKGPIILEMDTYRYHGHSMSDPDSTYRTRDEISGVRQERDPIERIKKLVLSHDLATEKELKDMEKEIRKEVDDAIAKAKDCPMPEPSELFTNVYVKGFGTESFGPDRKEVKASLP
chain 2: AAGAKEMTVRDALNSAIDEEMSADPKVFVMGEEVGQYQGAYKITKGLLEKYGPERVYDTPITEAGFTGIGVGAAYAGLKPVVEFMTFNFSMQAIDHIINSAAKSNYMSAGQINVPIVFRGPNGAAAGVGAQHSQCYAAWYASVPGLKVLAPYSAEDARGLLKAAIRDPDPVVFLENELLYGESFPISEEALDSSFCLPIGKAKIEREGKDVTIVTFSKMVGFALKAAEKLAEEGISAEVINLRSIRPLDRATINASVRKTSRLVTVEEGFPQHGVCAEICASVVEESFSYLDAPVERIAGADVPMPYAANLERLALPQIEDIVRASKRACYRSK
notes: as for B2
B4: AtPDC E1 (AtE1; recombinant alpha2beta2 pyruvate dehydrogenase) (Arabidopsis thaliana; P52901:D295A) (protein)
chain 1: SAAFSRLISTDTTPITIETSLPFTAHLCDPPSRSVESSSQELLDFFRTMALMRRMEIAADSLYKAKLIRGFCHLYDGQEAVAIGMEAAITKKDAIITAYRDHCIFLGRGGSLHEVFSELMGRQAGCSKGKGGSMHFYKKESSFYGGHGIVGAQVPLGCGIAFAQKYNKEEAVTFALYGDGAANQGQLFEALNISALWDLPAILVCENNHYGMGTAEWRAAKSPSYYKRGDYVPGLKVDGMDAFAVKQACKFAKQHALEKGPIILEMDTYRYHGHSMSAPGSTYRTRDEISGVRQERDPIERIKKLVLSHDLATEKELKDMEKEIRKEVDDAIAKAKDCPMPEPSELFTNVYVKGFGTESFGPDRKEVKASLP
chain 2: AAGAKEMTVRDALNSAIDEEMSADPKVFVMGEEVGQYQGAYKITKGLLEKYGPERVYDTPITEAGFTGIGVGAAYAGLKPVVEFMTFNFSMQAIDHIINSAAKSNYMSAGQINVPIVFRGPNGAAAGVGAQHSQCYAAWYASVPGLKVLAPYSAEDARGLLKAAIRDPDPVVFLENELLYGESFPISEEALDSSFCLPIGKAKIEREGKDVTIVTFSKMVGFALKAAEKLAEEGISAEVINLRSIRPLDRATINASVRKTSRLVTVEEGFPQHGVCAEICASVVEESFSYLDAPVERIAGADVPMPYAANLERLALPQIEDIVRASKRACYRSK
notes: as for B2
B5: AtPDC E1 (AtE1; recombinant alpha2beta2 pyruvate dehydrogenase) (Arabidopsis thaliana; P52901:D295N) (protein)
chain 1: SAAFSRLISTDTTPITIETSLPFTAHLCDPPSRSVESSSQELLDFFRTMALMRRMEIAADSLYKAKLIRGFCHLYDGQEAVAIGMEAAITKKDAIITAYRDHCIFLGRGGSLHEVFSELMGRQAGCSKGKGGSMHFYKKESSFYGGHGIVGAQVPLGCGIAFAQKYNKEEAVTFALYGDGAANQGQLFEALNISALWDLPAILVCENNHYGMGTAEWRAAKSPSYYKRGDYVPGLKVDGMDAFAVKQACKFAKQHALEKGPIILEMDTYRYHGHSMSNPGSTYRTRDEISGVRQERDPIERIKKLVLSHDLATEKELKDMEKEIRKEVDDAIAKAKDCPMPEPSELFTNVYVKGFGTESFGPDRKEVKASLP
chain 2: AAGAKEMTVRDALNSAIDEEMSADPKVFVMGEEVGQYQGAYKITKGLLEKYGPERVYDTPITEAGFTGIGVGAAYAGLKPVVEFMTFNFSMQAIDHIINSAAKSNYMSAGQINVPIVFRGPNGAAAGVGAQHSQCYAAWYASVPGLKVLAPYSAEDARGLLKAAIRDPDPVVFLENELLYGESFPISEEALDSSFCLPIGKAKIEREGKDVTIVTFSKMVGFALKAAEKLAEEGISAEVINLRSIRPLDRATINASVRKTSRLVTVEEGFPQHGVCAEICASVVEESFSYLDAPVERIAGADVPMPYAANLERLALPQIEDIVRASKRACYRSK
notes: as for B2

These binders were tested against T1, Arabidopsis thaliana pyruvate dehydrogenase-kinase (AtPDK), wild type, bacterial two-hybrid fusion in pBT (Arabidopsis thaliana, UniProt Q9SBJ1 1-366) (assay: two-hybrid; bacterial two-hybrid (BacterioMatch I, Stratagene): AtPDK in pBT, E1α constructs in pTRG, cotransformed into the E. coli reporter strain; quantified by β-galactosidase activity with o-nitrophenyl-β-D-galactoside). Settings: partners not purified.
T1 sequence (looked up): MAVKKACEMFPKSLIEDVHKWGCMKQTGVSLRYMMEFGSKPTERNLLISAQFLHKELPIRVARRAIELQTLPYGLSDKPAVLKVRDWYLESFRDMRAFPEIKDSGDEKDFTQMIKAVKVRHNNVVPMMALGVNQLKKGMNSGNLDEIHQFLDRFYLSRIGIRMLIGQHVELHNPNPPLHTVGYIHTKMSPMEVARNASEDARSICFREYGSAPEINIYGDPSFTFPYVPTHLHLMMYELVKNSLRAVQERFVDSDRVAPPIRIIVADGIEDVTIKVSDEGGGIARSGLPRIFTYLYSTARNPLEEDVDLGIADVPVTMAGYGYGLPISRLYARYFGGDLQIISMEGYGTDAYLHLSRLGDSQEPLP

| Binder | β-galactosidase reporter activity (100% of WT) [μmol min^−1 1.0 A600^−1] |
| --- | --- |
| B1 | 3 |

The binders below were run on CC(=O)C(=O)O (assay: purified protein). Settings: 1.8 μM K3Fe(CN)6 as electron acceptor, 30°C, labelled compound.
Type: biochemical, Arabidopsis thaliana

| Binder | Km [µM] | kcat [s⁻¹] | kcat/Km [M⁻¹ s⁻¹] |
| --- | --- | --- | --- |
| B2 | 45 ± 18 | 159 ± 14 | 3.5e+06 |
| B3 | 66 ± 24 | 70 ± 7 | 1e+06 |
| B4 | 178 ± 108 | 52 ± 12 | 300000 |
| B5 | 257 ± 144 | 38 ± 10 | 100000 |
